Measured values from patent US6368619B1, “Hydrophobic preparations of hydrophilic species and process for their preparation” (Provalis UK Limited, priority 1993, dated 2002).

Assays:
Assay type in all cases: physicochemical
[1] = Centrifugation of melanin dispersions in M818
[2] = Optical density at 600 nm of melanin solutions in oil (M818) and water; conditions: for Measurement at 600 nm, Water: Example 26: melanin alone in distilled water
Procedure: 10 mg of melanin were added to 1 ml of distilled water, and dissolved after raising pH with ammonium hydroxide solution. 50 ul of this concentrated solution was diluted 20-fold by addition to 950 ul of distilled water. To two rows of seven wells of a microplate 0, 12.5, 25, 37.5, and 50 ul of the dilute solution were added, and 12.5 and 25 ul of the concentrated solution. To each well of one row was added 100 ul of a soya phosphatidyl choline dispersion prepared by sonication for ten minutes with cooling at a concentration of 100 mg/ml. The other row was left untouched, the plate was mixed well, frozen at −20° C. and lyophilised overnight. The following day, 100 ul of M818 were added to wells in the row containing melanin/lipid complex, and 100 ul of distilled water was added to the wells in the row containing melanin alone. […] It will be seen from the table and accompanying graph that Beer-Lambert's law is obeyed over this concentration range (ie the response curve is linear), and that the behaviour of melanin is identical for both oil and aqueous solutions.

[3] = Stability of oil preparations on storage, standing or freeze-thawing (appearance)
Procedure: Egg PC SUVs at a concentration of 100 mg PC/ml were prepared as in Example 1. An insulin solution at 10 mg/ml was made by preparing an aqueous suspension at a slightly higher concentration, adding glacial acetic acid at a rate of 20 mg/g of insulin used, and then adding sufficient water to give the desired insulin concentration. After mixing and standing for 15 minutes, a clear solution was formed. To 1.25 ml of SUVs in a test-tube, were added 1.25 ml of insulin solution, and the mixture shell-frozen and freeze-dried overnight. The following day, 0.252 g of oleic acid was added and the tube vortexed to completely “wet” the lyophilate.
The HRPO solution was divided into two -equal portions, and one portion was put through five freeze-thaw cycles by cooling repeatedly to +4° C., solidifying the oleic acid each time, before bringing it back to room temperature.
The same procedure employed as described in Example 19, except that bovine brain sphingomyelin was used instead of phosphatidyl choline, resulting in proportions by weight of insulin/sphingomyelin/oleic acid of 5/50/200.

[4] = Turbidity of oil preparations by optical density / absorbance (plate reader); conditions: Example 9: egg lysophosphatidyl choline, oleic acid, 4.6 mg insulin/g
Procedure: It is very much preferred that the preparations of the invention are optically clear and this can be monitored by measuring turbidity at visible wave lengths and, in some cases, by checking for sedimentation over a period of time. […]
Aprotinin was dissolved in distilled water at a concentration of 10 mg/ml. Hexadecyl phosphocholine (HDPoC) was dissolved in distilled water at a concentration of 100 mg/ml. To aliquots of 100 μl of aprotinin solution, volumes of HDPOC were added ranging from 0 through to 10, 20, 30, 40 to 50 μl. The mixtures were frozen at −20° C. and lyophilised overnight. The following day 100 μl of oleic acid was added to each sample and shaken for one hour at room temperature on an orbital shaker.
Octyl glucoside was dissolved in distilled water and dispensed into wells of a microplate to give the following amounts of amphiphile per well: −0, 0.5, 1.0, 1.5, 2.0, 2.5, 5, 7.5 and 10 mg. Aprotinin was dissolved in distilled water at a concentration of 5 mg/ml, and 100 μl was dispensed into each well above, containing 0.5 mg of protein. The plate was mixed well, frozen at −20° C. and lyophilised overnight. The following day, […] of oleic acid was added to each well. The plate was shaken at room temperature, and optical density measurements at 550 nm taken at intervals with a plate reader. A low absorbance value indicates a low level of scattering, and corresponds to effective dispersion of protein in oil.
The results, expressed in terms of optical density as a function of octyl glucoside concentration (at constant protein concentration) at different times after addition of oleic acid are given in the table and accompanying graph.

[5] = Dispersion of hydrophilic species/amphiphile array in hydrophobic solvent: visual optical clarity

melanin
behaviour of dispersion on centrifugation ([1]; Example 26: dispersed in M818 by sonication in the absence of phosphatidyl choline): black dispersion, which sedimented out after centrifugation giving a clear supernatant | behaviour of dispersion on centrifugation ([1]; Example 26: melanin/lipid complex dispersed in M818): No such changes were observed after centrifugation | Measurement at 600 nm, Water ([2]; Concn 0.0625 mg/ml): 0.072 | Measurement at 600 nm, Water ([2]; Concn 0.125 mg/ml): 0.159 | Measurement at 600 nm, Water ([2]; Concn 0.187 mg/ml): 0.23 | Measurement at 600 nm, Water ([2]; Concn 0.25 mg/ml): 0.333 | Measurement at 600 nm, Water ([2]; Concn 1.25 mg/ml): 1.259 | Measurement at 600 nm, Water ([2]; Concn 2.5 mg/ml): 2.653 | Measurement at 600 nm, Miglyol ([2]; Example 26: melanin/soya PC complex in M818, Concn 0.0625 mg/ml): 0.078 | Measurement at 600 nm, Miglyol ([2]; Example 26: melanin/soya PC complex in M818, Concn 0.125 mg/ml): 0.157 | Measurement at 600 nm, Miglyol ([2]; Example 26: melanin/soya PC complex in M818, Concn 0.187 mg/ml): 0.23 | Measurement at 600 nm, Miglyol ([2]; Example 26: melanin/soya PC complex in M818, Concn 0.25 mg/ml): 0.306 | Measurement at 600 nm, Miglyol ([2]; Example 26: melanin/soya PC complex in M818, Concn 1.25 mg/ml): 1.565 | Measurement at 600 nm, Miglyol ([2]; Example 26: melanin/soya PC complex in M818, Concn 2.5 mg/ml): 2.857

insulin
change in appearance (eg sedimentation) on storage ([3]; Example 5: 7 weeks storage under nitrogen in a sealed tube at room temperature): no apparent change in the appearance | appearance on standing ([3]; Example 20: sphingomyelin/oleic acid, room temperature for several days): solid opaque gel | appearance of gel on warming ([3]; Example 20: sphingomyelin/oleic acid, warming to 37° C.): clear solution again | absorbance at 600 nm [4]: 0.023 | appearance of preparation ([5]; Example 5: egg PC SUVs, 0.252 g oleic acid, left overnight): yellow, optically clear dispersion displaying strong opalescence | appearance of dispersion ([5]; Example 6: 5 mg soy PC, 0.47 mg protein, 100 mg diolein, initially granular): became clear after 2 hours | appearance of dispersion ([5]; Example 8: DPPC SUVs 15 mg, 1.4 mg protein, 300 mg oleic acid): clear | appearance of dispersion ([5]; Example 9: egg lysophosphatidyl choline micelles, 0.3 g oleic acid): clear dispersion | insulin content of clear dispersion ([5]; Example 9: egg lysophosphatidyl choline, oleic acid): 4.6 mg insulin/g of oleic acid | appearance of dispersion ([5]; Example 10: soy PC SUVs, 300 mg Miglyol 810, following day): slightly opalescent | appearance of dispersion ([5]; Example 10: soy PC SUVs, 300 mg Miglyol 812, following day): completely clear | appearance of dispersion ([5]; Example 10: soy PC SUVs, 300 mg Miglyol 818, following day): completely clear | appearance of dispersion ([5]; Example 10: soy PC SUVs, 300 mg Miglyol 829, following day): turbid gel | appearance of dispersion ([5]; Example 10: soy PC SUVs, 300 mg Miglyol 840, following day): completely clear | appearance of solution ([5]; Example 20: bovine brain sphingomyelin, insulin/sphingomyelin/oleic acid 5/50/200, one hour mixing): completely clear solution | appearance of dispersions ([5]; Example 33: soy PC SUV, melts of tripalmitin, triheptadecanoin or tristearin with 2% oleic acid, 78 C, 1 to 2 hours): almost clear dispersions | appearance of dispersion ([5]; Example 36: AOT amphiphile, 200 mg octanol, standing overnight): clear after standing overnight
